Assay results published in patent US7867500B2, “Cofactor that modulates steroid receptor activities” (The United States of America as represented by the …, priority 2004, dated 2011).

How the values were obtained:
[1] = target: T1, glucocorticoid receptor (GR) (Rattus norvegicus, UniProt P06536); experiment: GR-mediated induction of GREtkLUC reporter, transient transfection of CV-1 cells
T1 sequence (P06536 1-795): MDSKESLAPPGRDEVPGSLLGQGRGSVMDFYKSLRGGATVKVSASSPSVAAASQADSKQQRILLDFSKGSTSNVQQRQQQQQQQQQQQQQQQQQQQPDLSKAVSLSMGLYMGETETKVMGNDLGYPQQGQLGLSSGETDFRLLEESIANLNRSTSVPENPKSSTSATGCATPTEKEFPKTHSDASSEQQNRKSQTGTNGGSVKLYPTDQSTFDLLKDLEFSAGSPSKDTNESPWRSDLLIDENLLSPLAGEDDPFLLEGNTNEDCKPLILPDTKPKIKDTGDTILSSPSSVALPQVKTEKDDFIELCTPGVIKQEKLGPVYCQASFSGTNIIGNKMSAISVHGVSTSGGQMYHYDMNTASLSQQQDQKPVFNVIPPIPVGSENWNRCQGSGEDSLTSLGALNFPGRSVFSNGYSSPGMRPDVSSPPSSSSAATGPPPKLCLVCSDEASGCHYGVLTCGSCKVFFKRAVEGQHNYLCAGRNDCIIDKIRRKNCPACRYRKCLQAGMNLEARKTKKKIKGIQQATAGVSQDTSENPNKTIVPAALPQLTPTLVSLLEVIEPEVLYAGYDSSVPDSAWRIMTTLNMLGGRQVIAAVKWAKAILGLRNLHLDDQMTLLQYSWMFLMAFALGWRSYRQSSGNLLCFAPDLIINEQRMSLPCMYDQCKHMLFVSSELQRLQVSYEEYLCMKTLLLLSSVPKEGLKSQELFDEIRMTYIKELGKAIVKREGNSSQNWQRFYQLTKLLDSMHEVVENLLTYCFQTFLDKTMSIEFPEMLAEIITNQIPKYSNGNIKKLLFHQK
Procedure: Triplicate samples of CV-1 cells were transiently transfected with GR (6 ng)±TIF2 (20 ng)±STAMP (160 ng) plasmids, GREtkLUC reporter, and Renilla control plasmid. […] FIG. 4B illustrates the fold changes in GR induction parameters by STAMP and TIF2. […] The fold-increase in each parameter was determined as follows: for EC50s, fold increase=[EC50]GR/[EC50]GR+factor; for partial agonist activity and fold Dex induction, fold increase=activityGR+factor/activityGR). The average fold increases were then plotted±S.E.M (n=4).
CV-1 cells were transiently transfected with GR (6 ng)±TIF2 (20 ng)±STAMP (160 ng) plasmids, GREtkLUC reporter, and Renilla control plasmid, and induced with ethanol± the indicated concentrations of Dex.
Tests were run to determine whether exogenous STAMP can modulate the EC50 of glucocorticoids and the partial agonist activity of antiglucocorticoids in the transient transfection assays where GR induced gene expression from a GREtkLUC reporter.

p300 = target: T2, p300 (Homo sapiens, UniProt Q09472); experiment: Mammalian two-hybrid assay with p300; type: cell-based; settings: data not shown
T2 construct: expressed in transfected cells; host or cells: CV-1 (the same two-hybrid assay)
T2 sequence (Q09472 whole entry, species assumed): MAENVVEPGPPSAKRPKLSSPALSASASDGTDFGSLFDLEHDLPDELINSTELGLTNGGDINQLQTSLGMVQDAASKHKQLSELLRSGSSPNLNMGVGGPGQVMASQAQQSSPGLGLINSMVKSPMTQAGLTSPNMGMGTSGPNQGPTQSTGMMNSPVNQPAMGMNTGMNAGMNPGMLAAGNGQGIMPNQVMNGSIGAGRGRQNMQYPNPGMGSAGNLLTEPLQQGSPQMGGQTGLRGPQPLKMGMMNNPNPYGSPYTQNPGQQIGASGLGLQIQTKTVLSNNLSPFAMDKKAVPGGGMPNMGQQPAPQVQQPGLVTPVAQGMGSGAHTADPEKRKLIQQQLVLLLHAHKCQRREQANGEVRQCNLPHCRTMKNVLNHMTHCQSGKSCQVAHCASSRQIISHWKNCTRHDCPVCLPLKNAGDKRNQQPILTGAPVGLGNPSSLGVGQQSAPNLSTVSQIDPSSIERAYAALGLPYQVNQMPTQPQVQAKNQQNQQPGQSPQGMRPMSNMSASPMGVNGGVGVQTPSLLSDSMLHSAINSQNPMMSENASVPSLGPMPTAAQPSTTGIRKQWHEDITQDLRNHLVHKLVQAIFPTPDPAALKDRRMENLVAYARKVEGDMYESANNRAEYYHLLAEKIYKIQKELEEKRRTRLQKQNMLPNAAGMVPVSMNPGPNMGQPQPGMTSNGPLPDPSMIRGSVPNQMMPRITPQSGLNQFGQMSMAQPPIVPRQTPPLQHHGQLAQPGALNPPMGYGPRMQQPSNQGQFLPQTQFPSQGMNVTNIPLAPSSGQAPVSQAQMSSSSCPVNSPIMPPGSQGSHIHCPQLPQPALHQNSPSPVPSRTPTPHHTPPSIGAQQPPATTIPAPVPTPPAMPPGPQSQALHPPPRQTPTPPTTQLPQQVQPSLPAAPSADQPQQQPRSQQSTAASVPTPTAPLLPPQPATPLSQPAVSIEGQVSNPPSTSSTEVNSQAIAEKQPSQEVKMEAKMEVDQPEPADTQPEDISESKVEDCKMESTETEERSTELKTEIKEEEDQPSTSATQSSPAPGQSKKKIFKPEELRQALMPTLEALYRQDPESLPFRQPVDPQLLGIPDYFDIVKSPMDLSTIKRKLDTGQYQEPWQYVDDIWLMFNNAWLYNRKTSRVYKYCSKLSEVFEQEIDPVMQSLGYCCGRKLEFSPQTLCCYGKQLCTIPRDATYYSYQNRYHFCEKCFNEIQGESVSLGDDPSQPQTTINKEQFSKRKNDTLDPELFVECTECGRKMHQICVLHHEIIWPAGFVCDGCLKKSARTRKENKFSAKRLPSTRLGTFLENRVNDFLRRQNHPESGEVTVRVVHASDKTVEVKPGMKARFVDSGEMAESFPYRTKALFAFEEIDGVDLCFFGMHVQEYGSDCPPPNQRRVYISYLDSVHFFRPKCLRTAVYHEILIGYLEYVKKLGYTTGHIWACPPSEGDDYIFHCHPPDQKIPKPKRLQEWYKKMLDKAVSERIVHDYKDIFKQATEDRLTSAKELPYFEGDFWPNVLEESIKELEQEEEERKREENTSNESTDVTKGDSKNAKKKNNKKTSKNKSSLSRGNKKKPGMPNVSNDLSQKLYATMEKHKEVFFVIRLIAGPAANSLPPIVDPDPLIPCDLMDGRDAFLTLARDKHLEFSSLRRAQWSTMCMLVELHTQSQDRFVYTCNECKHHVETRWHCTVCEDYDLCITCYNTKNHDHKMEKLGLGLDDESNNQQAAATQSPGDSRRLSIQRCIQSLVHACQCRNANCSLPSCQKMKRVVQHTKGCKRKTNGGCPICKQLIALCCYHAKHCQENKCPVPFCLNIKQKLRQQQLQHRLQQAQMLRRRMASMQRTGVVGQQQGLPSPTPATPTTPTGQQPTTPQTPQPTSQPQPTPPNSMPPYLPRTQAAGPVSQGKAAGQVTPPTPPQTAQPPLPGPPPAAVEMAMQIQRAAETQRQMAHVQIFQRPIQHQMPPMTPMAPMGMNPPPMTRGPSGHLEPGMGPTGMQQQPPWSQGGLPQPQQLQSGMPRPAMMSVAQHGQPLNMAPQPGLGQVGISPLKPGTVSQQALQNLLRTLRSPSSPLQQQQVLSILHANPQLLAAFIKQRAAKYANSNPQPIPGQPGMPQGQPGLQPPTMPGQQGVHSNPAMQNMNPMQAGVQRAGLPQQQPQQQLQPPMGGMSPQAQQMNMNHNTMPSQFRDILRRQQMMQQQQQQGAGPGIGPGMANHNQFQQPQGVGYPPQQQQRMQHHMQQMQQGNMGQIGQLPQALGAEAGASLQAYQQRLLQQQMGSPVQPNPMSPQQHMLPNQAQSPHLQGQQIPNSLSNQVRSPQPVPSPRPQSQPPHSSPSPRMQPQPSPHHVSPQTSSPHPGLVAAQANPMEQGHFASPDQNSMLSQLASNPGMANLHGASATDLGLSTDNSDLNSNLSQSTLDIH
Procedure: These assays were conducted as described (He et al., 2002). In particular, the recommended procedure for the Mammalian Matchmaker two-hybrid assay kit (Clontech) was modified slightly by changing from a chloramphenicol acetyltransferase reporter to a Luciferase Reporter pFRLuc (Stratagene), which is under the control of five repeats of the upstream activating sequence for the binding of GAL4.

PPARγ2 = target: T3, PPARγ2 (Homo sapiens, UniProt P37231); experiment: Mammalian two-hybrid assay with VP16 full length receptor: PPARγ2; type: cell-based; settings: 1 μM roziglitazone
T3 construct: plus VP16 fused to the indicated full length receptors; expressed in transfected cells; host or cells: CV-1
T3 sequence (P37231 1-505): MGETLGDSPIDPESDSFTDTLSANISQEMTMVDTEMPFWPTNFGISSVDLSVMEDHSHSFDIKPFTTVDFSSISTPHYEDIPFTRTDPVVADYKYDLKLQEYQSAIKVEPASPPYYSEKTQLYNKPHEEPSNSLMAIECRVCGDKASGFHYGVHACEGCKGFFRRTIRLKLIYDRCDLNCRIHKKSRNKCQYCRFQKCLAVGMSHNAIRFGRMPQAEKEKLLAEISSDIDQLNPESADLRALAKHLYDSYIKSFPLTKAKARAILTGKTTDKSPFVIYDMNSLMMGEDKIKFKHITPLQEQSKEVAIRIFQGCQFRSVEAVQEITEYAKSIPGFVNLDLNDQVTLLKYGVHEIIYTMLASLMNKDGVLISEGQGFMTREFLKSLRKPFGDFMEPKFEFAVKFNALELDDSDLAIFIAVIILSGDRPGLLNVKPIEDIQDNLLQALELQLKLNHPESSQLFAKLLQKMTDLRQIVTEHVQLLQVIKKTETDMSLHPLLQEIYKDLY
Procedure: (§1) FIG. 6C1-3 illustrate the association of STAMP with assorted steroid/nuclear receptors, including glucocorticoid receptors (GRs), progesterone receptors (PRs), androgen receptors (ARs), estrogen receptors (ER α or β), PPARγ2 receptors, thyroid receptor beta (TR), and retinoid (α) receptors (RAR α or RXR α). Triplicate samples of CV-1 cells were transfected (as described for FIG. 6B) with GAL, or GAL fused to TIF2.4 or STAMP834C, plus VP16 fused to the indicated full length receptors and incubated with the appropriate steroid (1 μM Dex, 20 nM R5020, 1 nM R1881, 0.1 μM triiodothyronine, or 1 μM estradiol, roziglitazone, or 9-cis-retinoic acid). The average relative luciferase activities of 2-3 experiments±S.E.M. were then plotted. FIG. 6C1 illustrates the effects of STAMP association upon GR, PR and AR induced expression. FIG. 6C2 illustrates the effects of STAMP association upon ERα, ERβ and PPARγ2 induced expression. FIG. 6C3 illustrates the effects of STAMP association upon TR, RARα and RXRα induced expression.
(§2) These assays were conducted as described (He et al., 2002). […]

RAR α = target: T4, RAR α (Homo sapiens, UniProt P10276); experiment: Mammalian two-hybrid assay with VP16 full length receptor: RARα; type: cell-based; settings: 1 μM 9-cis-retinoic acid
T4 construct: plus VP16 fused to the indicated full length receptors; expressed in transfected cells; host or cells: CV-1
T4 sequence (P10276 1-462): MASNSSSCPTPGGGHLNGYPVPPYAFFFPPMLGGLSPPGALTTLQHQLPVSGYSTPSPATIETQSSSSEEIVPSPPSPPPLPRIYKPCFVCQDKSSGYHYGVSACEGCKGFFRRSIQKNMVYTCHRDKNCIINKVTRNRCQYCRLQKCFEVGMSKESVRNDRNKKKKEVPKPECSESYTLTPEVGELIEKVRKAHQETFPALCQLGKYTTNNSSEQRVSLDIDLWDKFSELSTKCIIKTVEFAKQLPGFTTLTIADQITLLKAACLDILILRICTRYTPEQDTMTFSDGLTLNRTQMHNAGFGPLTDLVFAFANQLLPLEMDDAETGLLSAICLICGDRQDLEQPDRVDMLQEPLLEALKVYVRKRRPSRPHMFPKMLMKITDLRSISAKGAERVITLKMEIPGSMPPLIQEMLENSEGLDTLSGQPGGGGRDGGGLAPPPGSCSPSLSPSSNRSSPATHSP
Procedure: as §1, §2

B1: STAMP: SRC-1 and TIF2 Associated Modulatory Protein, 1277 amino acid human polypeptide, expressed from transfected plasmid (protein)
chain: MARDLEETASSSEDEEVISQEDHPCIMWTGGCRRIPVLVFHADAILTKDNNIRVIGERYHLSYKIVRTDSRLVRSILTAHGFHEVHPSSTDYNLMWTGSHLKPFLLRTLSEAQKVNHFPRSYELTRKDRLYKNIIRMQHTHGFKVFHILPQTFLLPAEYAEFCNSYSKDRGPWIVKPVASSRGRGVYLINNPNQISLEENILVSRYINNPLLIDDFKFDVRLYVLVTSYDPLVIYLYEEGLARFATVRYDQGAKNIRNQFMHLTNYSVNKKSGDYVSCDDPEVEDYGNKWSMSAMLRYLKQEGRDTTALMAHVEDLIIKTIISAELAIATACKTFVPHRSSCFELYGFDVLIDSTLKPWLLEVNLSPSLACDAPLDLKIKASMISDMFTVVGFVCQDPAQRASTRPIYPTFESSRRNPFQKPQRCRPLSASDAEMKNLVGSAREKGPGKLGGSVLGLSMEEIKVLRRVKEENDRRGGFIRIFPTSETWEIYGSYLEHKTSMNYMLATRLFQDRMTADGAPELKIESLNSKAKLHAALYERKLLSLEVRKRRRRSSRLRAMRPKYPVITQPAEMNVKTETESEEEEEVALDNEDEEQEASQEESAGFLRENQAKYTPSLTALVENTPKENSMKVREWNNKGGHCCKLETQELEPKFNLMQILQDNGNLSKMQARIAFSAYLQHVQIRLMKDSGGQTFSASWAAKEDEQMELVVRFLKRASNNLQHSLRMVLPSRRLALLERRRILAHQLGDFIIVYNKETEQMAEKKSKKKVEEEEEDGVNMENFQEFIRQASEAELEEVLTFYTQKNKSASVFLGTHSKISKNNNNYSDSGAKGDHPETIMEEVKIKPPKQQQTTEIHSDKLSRFTTSAEKEAKLVYSNSSSGPTATLQKIPNTHLSSVTTSDLSPGPCHHSSLSQIPSAIPSMPHQPTILLNTVSASASPCLHPGAQNIPSPTGLPRCRSGSHTIGPFSSFQSAAHIYSQKLSRPSSAKAGSCYLNKHHSGIAKTQKEGEDASLYSKRYNQSMVTAELQRLAEKQAARQYSPSSHINLLTQQVTNLNLATGIINRSSASAPPTLRPIISPSGPTWSTQSDPQAPENHSSSPGSRSLQTGGFAWEGEVENNVYSQATGVVPQHKYHPTAGSYQLQFALQQLEQQKLQSRQLLDQSRARHQAIFGSQTLPNSNLWTMNNGAGCRISSATASGQKPTTLPQKVVPPPSSCASLVPKPPPNHEQVLRRATSQKASKGSSAEGQLNGLQSSLNPAASVPITSSTDPAHTKI
For B1, the “increase in the partial agonist activity of the antagonist Dex-Mes” value ([1]; STAMP alone, no exogenous coactivators, low GR, 1 μM Dex-Mes, S.E.M., n=6, P=0.023) was 1.16±0.05 fold, the “shift in the dose-response curve to lower steroid concentrations” value ([1]; STAMP alone, no exogenous coactivators, low GR, Dex, S.E.M., n=6, P=0.0074) was 1.54±0.12 fold and the “fold induction by 1 μM Dex, fold increase” value ([1]; STAMP alone, S.E.M., n=6) was 0.93±0.08 fold. The “total amount of gene product induced by 1 μM Dex, fold increase” value ([1]; STAMP alone, S.E.M., n=6) was 1.26±0.05 fold and the “fold induction (above basal activity) with 1 μM Dex” value ([1]; both with and without added TIF2 (FIG. 4B)) was “increases the fold induction”.

B2: 6-6CL1: STAMP fragment amino acids 623-834, coactivator interaction domain (CID) (protein)
chain: ENTPKENSMKVREWNNKGGHCCKLETQELEPKFNLMQILQDNGNLSKMQARIAFSAYLQHVQIRLMKDSGGQTFSASWAAKEDEQMELVVRFLKRASNNLQHSLRMVLPSRRLALLERRRILAHQLGDFIIVYNKETEQMAEKKSKKKVEEEEEDGVNMENFQEFIRQASEAELEEVLTFYTQKNKSASVFLGTHSKISKNNNNYSDSGAKG
In the case of B2, the “association with p300” value (p300) is reported as “negligible association”.

B3: STAMP834C: STAMP fragment amino acids 834-1277, receptor interaction domain (RID) (protein)
chain: GDHPETIMEEVKIKPPKQQQTTEIHSDKLSRFTTSAEKEAKLVYSNSSSGPTATLQKIPNTHLSSVTTSDLSPGPCHHSSLSQIPSAIPSMPHQPTILLNTVSASASPCLHPGAQNIPSPTGLPRCRSGSHTIGPFSSFQSAAHIYSQKLSRPSSAKAGSCYLNKHHSGIAKTQKEGEDASLYSKRYNQSMVTAELQRLAEKQAARQYSPSSHINLLTQQVTNLNLATGIINRSSASAPPTLRPIISPSGPTWSTQSDPQAPENHSSSPGSRSLQTGGFAWEGEVENNVYSQATGVVPQHKYHPTAGSYQLQFALQQLEQQKLQSRQLLDQSRARHQAIFGSQTLPNSNLWTMNNGAGCRISSATASGQKPTTLPQKVVPPPSSCASLVPKPPPNHEQVLRRATSQKASKGSSAEGQLNGLQSSLNPAASVPITSSTDPAHTKI
With B3 the “interaction with PPARγ2” value (PPARγ2) was “lack of interaction” and the “interaction with retinoid (α) receptor” value (RAR α) was “lack of interaction”.
